Laboratory results reported in patent US20170218091A1 (AbbVie / Abbott, published 2017).

Target: T1, Human recombinant TNFα (rhTNFα) (human, UniProt P01375 77-233)
T1 construct: Soluble recombinant cytokine added to L929 cells; also called huTNFα; human TNF
Assay: SPR (BIAcore); antibody captured on a goat anti-huIgG Fc surface, huTNF injected at 25 nM

T1 sequence (P01375 77-233 limits assumed): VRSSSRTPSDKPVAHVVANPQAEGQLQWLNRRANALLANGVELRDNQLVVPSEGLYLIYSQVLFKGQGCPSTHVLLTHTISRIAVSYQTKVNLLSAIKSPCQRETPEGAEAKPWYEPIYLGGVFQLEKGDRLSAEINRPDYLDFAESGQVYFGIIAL

B1: AB441 (antibody, V domains shown)
VH: EVQLVQSGAEVKKPGASVKVSCKASGYTFANYGIIWVRQAPGQGLEWMGWINTYTGKPTYAQKFQGRVTMTTDTSTSTAYMELSSLRSEDTAVYYCARKLFTTMDVTDNAMDYWGQGTTVTVSS
VL: DIQMTQSPSSLSASVGDRVTITCRASQDISQYLNWYQQKPGKAPKLLIYYTSRLQSGVPSRFSGSGSGTDFTLTISSLQPEDFATYFCQQGNTWPPTFGQGTKLEIKR
Stoichiometry: 2
